The values below come from patent publication US20230109780A1 (XIYUAN ANJIAN MEDICINE SHANGHAI, published 2023).

The target in test [1] is T1, recombinant human NGF protein (human, UniProt P01138 122-241).
T1 construct: Bought protein; also called nerve growth factor; biotin-labeled human NGF
Briefly: blocking ELISA, TrkA-Fc coated, antibody premixed with biotin-labeled human NGF. The procedure: If the method of coated receptor TrkA is used for detection, 50 ng of NGF receptor TrkA protein (fused to human Fc) was coated in each well of a 96-well microtiter plate, washed three times, and then blocked with 3% BSA for 1 hour. […] 100 μl was taken and mixed with an equal volume of 1 μg/mL biotin-labeled human NGF, incubated at room temperature for 0.5 hours, and then added to an ELISA plate which has been washed with blocking solution. Incubated for 1 hour at room temperature and washed three times. Streptavidin-labeled HRP (Biolegend, 405210) was added, and incubated for 0.5 h and then washed three times. The microtiter plate was added with TMB, and read after the color development was terminated.

Test [2] addresses T1, recombinant human NGF protein. Briefly: cell-based or functional assay.
The next test deals with T2, human BDNF (human, UniProt P23560 129-247).
T2 construct: Bought protein; also called Brain-Derived Neurotrophic Factor
T2 sequence (looked up): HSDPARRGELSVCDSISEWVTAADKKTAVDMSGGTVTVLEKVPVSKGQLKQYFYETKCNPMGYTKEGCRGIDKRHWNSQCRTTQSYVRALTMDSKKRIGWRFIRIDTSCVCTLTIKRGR
Briefly: ELISA, plate coated with human BDNF (50 ng per well), OD450. The procedure:
(§1) The binding capacity of anti-NGF antibodies was investigated by using human NGF as an antigen (Beijing Yiqiao Shenzhou Technology Co., Ltd., 11050-HNAC). Each well of a 96-well microtiter plate was coated with 50 ng of human NGF, after washing and blocking, and then added with serially diluted antibodies, and incubated at room temperature for 1 hour. After washing three times, HRP-conjugated goat anti-mouse antibody (Biolegend, 405306) was added and incubated at room temperature for 1 hour. After washing three times, tetramethylbenzidine (TMB, Biolegend, 421101) was added for color development. 1M HC1 was used to terminate the color development, and the absorbance values were read at 450 nm with a microplate reader.
(§2) Each well of a 96-well microtiter plate was coated with 50 ng of human NGF (Beijing Yiqiao Shenzhou Technology Co., Ltd., 11050-HNAC), human BDNF (Beijing Yiqiao Shenzhou Technology Co., Ltd., 50240-MNAS), human NT-3 (Beijing Yiqiao Shenzhou Technology Co., Ltd., 10286-HNAE), or human NT-4 (Alomone, N-270). The bindings of the murine anti-NGF antibodies to human NGF and three homo-family proteins were detected according to the method described in Example 2.

Test [3] has as its target T1, recombinant human NGF protein. Briefly: BLI (ForteBio Octet Red96), biotin-NGF on SA sensor, antibody in solution. An excerpt:
The affinities of the antibodies were detected with Biomolecular Interaction Detection Platform (ForteBio Octet Red96 (PALL)). Biotin-labeled human NGF was immobilized by using SA (Streptavidin) Biosensor (Fortebio, 18-5021), and then conjugated with gradient concentrations of anti-NGF antibodies.

For test [4] the target is unchanged. As to the kind of experiment: blocking ELISA, human NGF coated, antibody first, then TrkA-Fc. Here is the method: If using the coated ligand NGF method for detection, each well of a 96-well microtiter plate was coated with 50 ng of human NGF and washed three times. […] 100 μL of 1 μg/mL TrkA fused to human Fc was added to each well, incubated for 1 hour at room temperature, and washed three times. HRP-conjugated donkey anti-human IgG antibody (Biolegend, 410902) was added and reacted for 1-hour at room temperature. After washing, add TMB to develop color, and read after the termination of development.

Test [5] has the same target. Briefly: cell-based or functional assay. This is another data set of the same source.
For test [6] the target is unchanged. Briefly: cell-based or functional assay. This is another data set of the same source.
The target of the next test is T3, human NT-3 (human, UniProt P20783 139-257).
T3 construct: Bought protein; also called Neurotrophic factor-3
T3 sequence (looked up): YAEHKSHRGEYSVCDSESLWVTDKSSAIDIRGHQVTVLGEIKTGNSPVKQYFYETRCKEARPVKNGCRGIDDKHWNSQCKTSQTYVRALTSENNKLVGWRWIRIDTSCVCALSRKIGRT
Briefly: ELISA, plate coated with human NT-3 (50 ng per well), OD450. Here is the method:
as §1, §2

The next test addresses T4, human NT-4 (human, UniProt P34130 81-210).
T4 construct: Bought protein; also called Neurotrophic factor-4
T4 sequence (looked up): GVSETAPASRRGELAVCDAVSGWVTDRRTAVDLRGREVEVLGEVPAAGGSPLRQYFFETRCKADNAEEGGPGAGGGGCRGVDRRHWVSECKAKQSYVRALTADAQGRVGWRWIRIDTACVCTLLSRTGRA
Briefly: ELISA, plate coated with human NT-4 (50 ng per well), OD450. Here is the method:
as §1, §2

Test [7] addresses T1, recombinant human NGF protein. As to the kind of experiment: ELISA, human NGF coated. The procedure: as §1

T1 sequence (P01138 122-241 limits assumed): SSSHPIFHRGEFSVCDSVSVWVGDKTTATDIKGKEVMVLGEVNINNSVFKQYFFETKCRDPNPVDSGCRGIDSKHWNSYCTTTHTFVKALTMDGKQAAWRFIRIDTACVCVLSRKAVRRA

B1: murine anti-human NGF monoclonal antibody 138E12 (antibody, V domains shown)
VH: QVQLKESGPGLVAPSQSLSITCTVSGFSLTGYGVNWVRQPPGKGLEWLGMIWFDGSTDYNSALKSRLSISKDNSKSQVFLKMNSLQTDDTARYYCAREGYYYGTTYYFDYWGQGTTLTVSS
VL: DIQMTQTTSSLSASLGDRVTISCRASQDISNYLNWYQQKPDGTVKLLIYYTSRLHSGVPSRFSGSGSGTDYSLTISNLEQEDIATYFCQQGNTLPRTFGGGTKLEIK
notes: Murine monoclonal antibody purified from hybridoma medium by protein G; also called anti-NGF antibody 138E12
For the molecule B1, the half-maximal inhibitory concentration (IC50) in [1] is 0.677 nM; in [4] it was 0.865 nM. Further, in [2], the “IC50, inhibition of NGF-induced proliferation of TF-1 cell” value amounted to 0.077 nM. Moreover, the binding result with human BDNF, in the test with human NT-3 and with human NT-4 was “no binding (tested: 66.67 nM)” throughout. The Kd in [3] was less than 0.001 nM. Also, in [3], the koff is less than 1e-07 s⁻¹. Besides, in [3], the kon was 634000 M⁻¹ s⁻¹. In [5], the “IC50 (row head prints EC50), inhibition of reporter gene expression in TrkA/NFAT-bla/CHO cells” value came to 0.0442 nM. The “IC50, inhibition of NGF-induced proliferation of TrkA/Ba/F3 cells” value in [6] is 0.098 nM. In addition, in test [7], the EC50 is 0.1 nM.

B2: murine anti-human NGF monoclonal antibody 43E5 (antibody, V domains shown)
VH: QVQLQQSGAELVRPGASVTLSCKASGYTFTDYEMHWVRQTPVHGLEWIGAIDPETGGTAYNQKFKGKATLTADKSSSTAYMELRSLTSEDSAVYYCRRGANLNHYGNDEGSYWGQGTLVTVSA
VL: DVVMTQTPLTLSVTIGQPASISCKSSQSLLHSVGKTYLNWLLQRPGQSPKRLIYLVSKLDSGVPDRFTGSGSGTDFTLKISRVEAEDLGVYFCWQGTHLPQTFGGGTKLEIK
notes: Murine monoclonal antibody purified from hybridoma medium by protein G; also called anti-NGF antibody 43E5
For the molecule B2, the IC50 stood at 0.767 nM in test [1] and 0.967 nM in test [4]. For the same molecule, the “IC50, inhibition of NGF-induced proliferation of TF-1 cell” value in test [2] came to 0.083 nM. Further, the binding result in the test with human BDNF, with human NT-3 and in the test with human NT-4 was “no binding (tested: 66.67 nM)” each time. In addition, the Kd in test [3] is less than 0.001 nM. Also, the koff in test [3] was less than 1e-07 s⁻¹. The association rate constant (kon) in test [3] was found to be 373000 M⁻¹ s⁻¹. Further, the “IC50 (row head prints EC50), inhibition of reporter gene expression in TrkA/NFAT-bla/CHO cells” value in test [5] came out at 0.0532 nM. Also, the “IC50, inhibition of NGF-induced proliferation of TrkA/Ba/F3 cells” value in [6] turned out to be 0.096 nM. For the same molecule, the EC50 in [7] is 0.082 nM.
